Experiment [1] deals with T1, recombinant E1/E2 heterodimer protein (genotype 1a) (hepatitis C virus genotype 1a, UniProt P26664 192-383; P26664 384-746, limits assumed).
T1 construct: also called E1/E2 in complex; recombinant E1/E2 antigen
The experiment can be described thus: ELISA, E1/E2 heterodimer coated; crude periplasmic Fab.

Experiment [2] deals with T2, recombinant soluble HCV E1 protein (hepatitis C virus).
T2 construct: It is not the cell-surface E1-myc construct (aa 174-359 of H77c) that was used for phage selection; also called recombinant E1; soluble E1 protein
The experiment can be described thus: ELISA, recombinant E1 captured on GNA lectin; crude periplasmic Fab. (In general: ELISA stands for enzyme-linked immunosorbent assay.)

T1 sequence (P26664 192-383 limits assumed, chain 1 of 2): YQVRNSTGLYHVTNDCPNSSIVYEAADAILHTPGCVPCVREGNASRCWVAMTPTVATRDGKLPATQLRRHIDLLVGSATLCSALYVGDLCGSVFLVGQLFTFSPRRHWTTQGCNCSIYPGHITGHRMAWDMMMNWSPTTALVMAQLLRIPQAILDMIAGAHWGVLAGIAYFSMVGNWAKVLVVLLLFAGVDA
T1 sequence (P26664 384-746 limits assumed, chain 2 of 2): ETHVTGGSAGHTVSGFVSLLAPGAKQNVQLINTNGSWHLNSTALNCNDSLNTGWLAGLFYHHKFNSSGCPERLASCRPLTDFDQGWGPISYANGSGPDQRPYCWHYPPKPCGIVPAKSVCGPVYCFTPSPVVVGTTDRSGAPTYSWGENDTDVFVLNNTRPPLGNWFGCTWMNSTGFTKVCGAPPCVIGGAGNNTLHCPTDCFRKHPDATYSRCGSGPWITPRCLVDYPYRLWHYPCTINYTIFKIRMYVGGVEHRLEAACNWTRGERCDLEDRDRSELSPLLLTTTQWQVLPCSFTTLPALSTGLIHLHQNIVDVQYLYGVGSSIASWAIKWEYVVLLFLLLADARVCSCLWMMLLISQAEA

B1: Fab clone 2b-10 (Fab, V domains shown)
VH: EVQLLESGGGVVQPGRSLKLSCTASTFTFTNYAMHWVRQAPGKGLEWVALISNDGSKTYYTDSVRGRFTISRDNSKNTLFLQMNSLRTEDTAVYHCARVKLQGSFNVYYYYGLDVWGQGTTVTVSS
VL: AELTQSPLSLPVTPGEPASISCRSSQSLLHSDGYNYFDWYLQKPGQSPQLLIYLGSNRASGVPDRFSGSGSDTDFTLKISRVEAEDVGVYYCMQTLQTLTFGGGTKLEIK
notes: Human Fab (gamma1 Fd + kappa), crude periplasmic preparation, approx. >1.0 ug Fab/ml
Consider B1, for which the OD405 nm in experiment [1] was found to be 0.11 OD405 nm; in experiment [2] it was 0.48 OD405 nm.

B2: Fab clone 2a-33 (Fab, V domains shown)
VH: VQLLEQSGGGLVQPGRSLRLSCAASGFTFDDYAMHWVRQTPGKGLEWVSGIGWNSGTIEYADSVKGRFTISRDNAKNSLYLQMNSLRPEDTALYYCAKDLHSFGYCSGRSCYFHPFDYWGQGTLVTVSS
VL: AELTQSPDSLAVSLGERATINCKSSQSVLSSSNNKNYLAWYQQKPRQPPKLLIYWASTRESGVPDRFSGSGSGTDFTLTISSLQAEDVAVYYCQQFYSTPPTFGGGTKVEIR
notes: Human Fab (gamma1 Fd + kappa), crude periplasmic preparation, approx. >1 ug Fab/ml
As to B2, the values for the OD405 nm in experiment [1] and in experiment [2] were 0.14 OD405 nm and 0.65 OD405 nm, respectively.

B3: Fab clone 2b-1 (Fab, V domains shown)
VH: EVQLLESGPRLVKPSQTLSLTCTVSGDSLNNASHYWAWIRQPAGKGLEWIGRIHRGGSTNYNPSLQSRVTISMDESKNQFSLRLNSVTAADTAVYYCARDPPKAWGPGILVTVSS
VL: AELTQSPSSLSASVGDRVTIACRASQSISNHLNWYQQKPGKAPKVLIYAASSLQSGVPSRFSGSGSGTDFTLTISSLQPEDFAIYYCQQSYSNADFGPGTKVDIK
notes: Human Fab (gamma1 Fd + kappa), crude periplasmic preparation, approx. 0.94 ug Fab/ml
Consider B3, for which the OD405 nm in experiment [1] stood at 0.12 OD405 nm; in experiment [2] it was 0.35 OD405 nm.

B4: Fab clone 2a-32 (Fab, V domains shown)
VH: VQLLEQSGGDLVKPGGSLRLSCAASGFTFTDYYMNWIRQAPGKGLEWIAYISIGSDDTKYAASVKGRFSISRDNAKNSLYLQMNSLRVEDTAVYYCGRGGGYCSGGNCYSSDYWGQGALVTVSS
VL: AELTQSPSSLSAFTGDRVSITCRASQGIGNSLAWYQQKPGHVPKVLIYDASTLSSGAPSRFSGSGSGTDFTLTISGLQPEDVATYYCQKYKSAPLTFGGGTKVEIR
notes: as for B2
In the case of B4, the OD405 nm in experiment [1] is 0.09 OD405 nm; in experiment [2], 0.61 OD405 nm.

B5: Fab clone 2b-5 (Fab, V domains shown)
VH: EVQLLESGGGVVQPGRSLRLSCAASGFTLSTYAMHWVRQAPGRGLEWVAVISYDGDHKFYADSMKGRFAISRDTSTNTLYLEVNSLKIEDTAVYYCARDRDRRGGYVFSTTGGLDSWGQGTLVTVSS
VL: AELTQSPLSLAVTPGEPASISCRTSQSLLHSNGYTYLDWYLQKPGQSPQLLIYLASNRASGVPDRFSGSGSGTDFTLEISRVEAEDVGVYYCMQPLQTPVTFGQGTKVEVK
notes: as for B1
Turning to B5, the values for the OD405 nm in experiment [1] and in experiment [2] were 1.4 OD405 nm and 2.21 OD405 nm, respectively.

B6: Fab clone 2a-14 (Fab, V domains shown)
VH: VQLLEQSGGGVVQPGRSLRLSCAASGFTFSTYAMHWVRQAPGKGLEWVAVISHDGSNKFYADSVKGRFTISRDSSKNTLYLQMNSLRPGDTAVYYCSRWDRRAEYFQDWGQGTLVTVSS
VL: AELTQSPAFMSATPGDKVNISCKASQDIDDDMNWYQQKPGEAAIFIIQEATTLVPGIPPRFSGSGYGTDFTLTINNIESEDAAYYFCLQHDNFPLTFGQGTKVEIK
notes: Human Fab (gamma1 Fd + kappa), crude periplasmic preparation, approx. 0.72 ug Fab/ml
Consider B6, for which the OD405 nm in experiment [1] stood at 0.09 OD405 nm; in experiment [2], 0.36 OD405 nm.

B7: Fab clone 2b-4 (Fab, V domains shown)
VH: EVQLLESGGEVKKPGSSVKVSCKASGGPFSSYAIHWVRQAPGQGLEWMGAIIPFLGRAKYAQKFEGRVTITADGSMSTAYMEVSSLRSDDTAMYYCARDRGELLLRMDVWGQGTAVTVSS
VL: AELTQSPAFMSATPGDKVNISCKASQDIDDDMNWYQQKPGEAAIFIIQEATTLVPGIPPRFSGSGYGTDFTLTINNIESEDAAYYFCLQHDNFPLTFGQGTKVEIK
notes: Human Fab (gamma1 Fd + kappa), crude periplasmic preparation, approx. 0.68 ug Fab/ml
With B7, the values for the OD405 nm in experiment [1] and in experiment [2] were 0.09 OD405 nm and 0.11 OD405 nm, respectively.

B8: Fab clone 2b-7 (Fab, V domains shown)
VH: VQLLEQSGAEVKKPGESLKISCRASGYSFSLFWVAWVRQMPGQGLEWMAIIYPGDSDTTYSPSFEGQVNVSVDKPISTAYLQWSSLKASDTAMYYCARRRSSDRRDAFDIWGPGTMVTVSS
VL: AELTQSPAFMSATPGDKVNISCKASQDIDDDMNWYQQKPGEAAIFIIQEATTLVPGIPPRFSGSGYGTDFTLTINNIESEDAAYYFCLQHDNFPLTFGQGTKVEIK
notes: Human Fab (gamma1 Fd + kappa), crude periplasmic preparation, approx. 0.54 ug Fab/ml
Take B8: the OD405 nm in experiment [1] was determined as 0.32 OD405 nm; in experiment [2], 0.47 OD405 nm.

B9: Fab clone 2b-3 (Fab, V domains shown)
VH: EVQLLESGAEVKKPGASVTVSCKASGYSFSDYYIHWVRQAPGQGLEWMGIINPSAGTTTYKQKFQHRVTLTRDTSTNTAYMKLYNLTPDDTAIFFCARGSGGSRSEYDYWGQGTLVTVSS
VL: AELTQSPSSLSASVGDGVTITCRASQSISTYLNWYQQKPGKAPKLLMYAASTLQSGVPSRFSGSGSGTDFTLTISSLQPEDFAAYYCQQARSFPYTFGQGTRLEIR
notes: Human Fab (gamma1 Fd + kappa), crude periplasmic preparation, approx. 1.0 ug Fab/ml
B9: the values for the OD405 nm in experiment [1] and in experiment [2] were 0.19 OD405 nm and 1.18 OD405 nm, respectively.

B10: Fab clone 1:4 (Fab, V domains shown)
VH: EVQLLESGPGLVKPSETLSLTCTVSNGSMSNYCWSWIRQSPGKGLEWIGYIYYSGSTSYNPSLRSRVALLVDTSKNQFSLKLTSVTTADTAVYYCARDLSARGGTRNRDALDVWGQGTQVTVSA
VL: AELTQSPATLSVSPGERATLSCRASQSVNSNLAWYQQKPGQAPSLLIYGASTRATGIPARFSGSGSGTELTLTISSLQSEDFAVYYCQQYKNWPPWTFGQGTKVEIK
notes: Human Fab (gamma1 Fd + kappa), crude periplasmic preparation, approx. 0.01 ug Fab/ml
For the molecule B10, the figures for the OD405 nm in experiment [1] and in experiment [2] were 0.67 OD405 nm and 0.78 OD405 nm, respectively.

B11: Fab clone 2a-30 (Fab, V domains shown)
VH: VQLLEQSGGGLVQPGGSLRLSCTASGFTLTDYSMDWVRQAPGKGPEWVGRSRNKANIYTTEYAASVKGRFVISRDDSENSVYLQMNNVKMDDTAVYYCARGEGIFYGSGSLDLWGQGAVVTVSS
VL: AELTQSPSSLSASVGDRVTITCRSSQSISNSLHWFQQEPGKAPKLLIYAASTLQSGVPSRFSGSGSGTDFTLIITGLQPEDFATYYCQQSPRTPLTFGGGTKVEIR
notes: Human Fab (gamma1 Fd + kappa), crude periplasmic preparation, approx. 0.96 ug Fab/ml
For B11, the OD405 nm in experiment [1] was found to be 0.52 OD405 nm; in experiment [2], 1.11 OD405 nm.

B12: Fab clone 2a-37 (Fab, V domains shown)
VH: EVQLLESGGGLVQPGRSLRLSCAASGFTFSNSDMHWVRQAPGKGLEWVTVSSRDGYDNYYADSVRGRFTISRDNSKNTLYLQMNTLRAEDTAVYYCAKRRGYAFDIWGQGTMVTVSS
VL: AELTQSPSSLSASVGDRVTITCRASQSINTYLNWYQQKPGKAPELLIYGASSLQSGVPSRFSGSGSGTDFTLTITSLQAEDFASYFCQQSDSTPRTFGQGTKVEIK
notes: Human Fab (gamma1 Fd + kappa), crude periplasmic preparation, approx. 0.08 ug Fab/ml
B12: the OD405 nm amounted to 0.48 OD405 nm in experiment [1] and 0.99 OD405 nm in experiment [2].
